In experiment [1] the target is IgG (Gammanorm). As to the kind of experiment: SPR (Biacore), variant amine-coupled to CM5 chip, Gammanorm as analyte, 1:1 kinetic fit.
For experiment [2], the target named is IgG (Gammanorm). The experiment can be described thus: SPR (Biacore), variant amine-coupled to CM5 chip, Gammanorm as analyte, steady state affinity fit. Background: Surface plasmon resonance follows binding to a sensor surface in real time, without labels.

B1: Protein L variant pAM247 (domain C4-1; H10, H45, Q60) (protein)
chain: PKEEVTIKVHLIFADGKTQTAEFKGTFEEATAEAYRYADLLAKVHGEYTADLEDGGYTIQIKFAGKEQPGENPG
As for B1, the results for the Kd with IgG (Gammanorm) [1] and with IgG (Gammanorm) [2] were 9 nM and 38 nM, respectively.

B2: Protein L variant pAM261 (domain C4-2; H10, H45, Y60) (protein)
chain: PKEEVTIKVHLIFADGKTQTAEFKGTFEEATAEAYRYADLLAKVHGEYTADLEDGGYTIYIKFAGKEQPGENPG
In the case of B2, the Kd with IgG (Gammanorm) [1] was found to be 12 nM; with IgG (Gammanorm) [2], 43 nM.

B3: Protein L variant pAM244 (domain C2b-1; H10, H45, Q60) (protein)
chain: PKEEVTIKVHLIFADGKTQTAEFKGTFEEATAKAYAYADLLAKEHGEYTADLEDGGYTIQIKFAGKETPETPEE
As to B3, the figures for the Kd with IgG (Gammanorm) [1] and with IgG (Gammanorm) [2] were 18 nM and 50 nM, respectively.

B4: Protein L variant pAM249 (domain B1-2; H10, H45, Y60) (protein)
chain: SEEEVTIKAHLIFANGSTQTAEFKGTFEKATSEAYAYADTLKKDHGEYTVDVADKGYTLYIKFAGKEKTPEE
As to B4, the dissociation constant Kd was found to be 29 nM with IgG (Gammanorm) [1] and 79 nM in the experiment with IgG (Gammanorm) [2].

B5: Protein L variant pAM235 (domain B1-1; H10, H45, Q60) (protein)
chain: SEEEVTIKAHLIFANGSTQTAEFKGTFEKATSEAYAYADTLKKDHGEYTVDVADKGYTLQIKFAGKEKTPEE
As to B5, the Kd was 42 nM with IgG (Gammanorm) [1] and 101 nM with IgG (Gammanorm) [2].

B6: Protein L variant pAM251 (domain B2-2; H10, H45, Y60) (protein)
chain: PKEEVTIKAHLIYADGKTQTAEFKGTFEEAAAEAYRYADALKKDHGEYTVDVADKGYTLYIKFAGKEKTPEE
Consider B6, for which the values for the Kd with IgG (Gammanorm) [1] and with IgG (Gammanorm) [2] were 20 nM and 55 nM, respectively.

B7: Protein L variant pAM238 (domain B3-1; H10, H45, Q60) (protein)
chain: PKEEVTIKAHLIYADGKTQTAEFKGTFEEATAEAYRYADLLAKEHGKYTVDVADKGYTLQIKFAGKEKTPEE
Consider B7, for which the values for the Kd with IgG (Gammanorm) [1] and with IgG (Gammanorm) [2] were 25 nM and 82 nM, respectively.

B8: Protein L variant pAM237 (domain B2-1; H10, H45, Q60) (protein)
chain: PKEEVTIKAHLIYADGKTQTAEFKGTFEEAAAEAYRYADALKKDHGEYTVDVADKGYTLQIKFAGKEKTPEE
Regarding B8, the Kd with IgG (Gammanorm) [1] turned out to be 27 nM; in the experiment with IgG (Gammanorm) [2], 72 nM.

B9: Protein L variant pAM252 (domain B3-2; H10, H45, Y60) (protein)
chain: PKEEVTIKAHLIYADGKTQTAEFKGTFEEATAEAYRYADLLAKEHGKYTVDVADKGYTLYIKFAGKEKTPEE
With B9, the Kd with IgG (Gammanorm) [1] is 16 nM; with IgG (Gammanorm) [2], 69 nM.

B10: Protein L variant pAM253 (domain B4-2; H10, H45, Y60) (protein)
chain: PKEEVTIKAHLIYADGKTQTAEFKGTFAEATAEAYRYADLLAKEHGKYTADLEDGGYTIYIRFAGKKVDEKPEE
In the case of B10, the Kd with IgG (Gammanorm) [1] worked out at 14 nM; with IgG (Gammanorm) [2] it was 54 nM.

B11: Protein L variant pAM239 (domain B4-1; H10, H45, Q60) (protein)
chain: PKEEVTIKAHLIYADGKTQTAEFKGTFAEATAEAYRYADLLAKEHGKYTADLEDGGYTIQIRFAGKKVDEKPEE
B11: the Kd in the experiment with IgG (Gammanorm) [1] is 17 nM; in the experiment with IgG (Gammanorm) [2] it was 60 nM.

B12: Protein L variant pAM262 (domain D1-2; H10, H45, Y60) (protein)
chain: PKEEVTIKAHLIFADGKTQTAEFKGTFEEATAEAYRYADLLAKVHGEYTADLEDGGYTIYIKFAGKEQPGEN
For the molecule B12, the Kd is 11 nM with IgG (Gammanorm) [1] and 48 nM with IgG (Gammanorm) [2].

B13: Protein L variant pAM248 (domain D1-1; H10, H45, Q60) (protein)
chain: PKEEVTIKAHLIFADGKTQTAEFKGTFEEATAEAYRYADLLAKVHGEYTADLEDGGYTIQIKFAGKEQPGEN
As to B13, the dissociation constant (Kd) with IgG (Gammanorm) [1] turned out to be 16 nM; with IgG (Gammanorm) [2], 56 nM.

B14: Protein L variant pAM246 (domain C3b-1; H10, H45, Q60) (protein)
chain: PKEEVTIKVHLIFADGKIQTAEFKGTFEEATAKAYAYADLLAKEHGEYTADLEDGGYTIQIKFAGKETPETPEE
For the molecule B14, the Kd was 17 nM with IgG (Gammanorm) [1] and 49 nM with IgG (Gammanorm) [2].

B15: Protein L variant pAM245 (domain C3-1; H10, H45, Q60) (protein)
chain: PKEEVTIKVHLIFADGKIQTAEFKGTFEEATAKAYAYANLLAKEHGEYTADLEDGGNTIQIKFAGKETPETPEE
Regarding B15, the Kd in the experiment with IgG (Gammanorm) [1] turned out to be 65 nM; with IgG (Gammanorm) [2], 134 nM.

B16: Protein L variant pAM257 (domain C2-2; H10, H45, Y60) (protein)
chain: PKEEVTIKVHLIFADGKTQTAEFKGTFEEATAKAYAYADLLAKEHGEYTADLEDGGNTIYIKFAGKETPETPEE
Take B16: the dissociation constant (Kd) in the experiment with IgG (Gammanorm) [1] was 47 nM; in the experiment with IgG (Gammanorm) [2] it was 98 nM.

B17: Protein L variant pAM259 (domain C3-2; H10, H45, Y60) (protein)
chain: PKEEVTIKVHLIFADGKIQTAEFKGTFEEATAKAYAYANLLAKEHGEYTADLEDGGNTIYIKFAGKETPETPEE
In the case of B17, the dissociation constant Kd with IgG (Gammanorm) [1] worked out at 55 nM; with IgG (Gammanorm) [2] it was 120 nM.

B18: Protein L variant pAM260 (domain C3b-2; H10, H45, Y60) (protein)
chain: PKEEVTIKVHLIFADGKIQTAEFKGTFEEATAKAYAYADLLAKEHGEYTADLEDGGYTIYIKFAGKETPETPEE
On to B18, for which the values for the Kd in the experiment with IgG (Gammanorm) [1] and in the experiment with IgG (Gammanorm) [2] were 18 nM and 51 nM, respectively.

B19: Protein L variant pAM258 (domain C2b-2; H10, H45, Y60) (protein)
chain: PKEEVTIKVHLIFADGKTQTAEFKGTFEEATAKAYAYADLLAKEHGEYTADLEDGGYTIYIKFAGKETPETPEE
Consider B19, for which the Kd with IgG (Gammanorm) [1] turned out to be 17 nM; with IgG (Gammanorm) [2] it was 45 nM.

B20: Protein L variant pAM243 (domain C2-1; H10, H45, Q60) (protein)
chain: PKEEVTIKVHLIFADGKTQTAEFKGTFEEATAKAYAYADLLAKEHGEYTADLEDGGNTIQIKFAGKETPETPEE
In the case of B20, the Kd with IgG (Gammanorm) [1] is 39 nM; with IgG (Gammanorm) [2], 83 nM.

Broadly, the Kd is the free concentration of one partner at which half of the binding sites on the other are occupied at equilibrium, for simple one-to-one binding. A higher Kd goes with a looser complex.
